Measured values published in patent US20260097113A1 (Pfizer, published 2026).

B1: AM14 (trimeric prefusion specific antibody of the AM14 ELISA) (antibody, V domains shown)
VH: EVQLVESGGGVVQPGRSLRLSCAASGFSFSHYAMHWVRQAPGKGLEWVAVISYDGENTYYADSVKGRFSISRDNSKNTVSLQMNSLRPEDTALYYCARDRIVDDYYYYGMDVWGQGATVTVSS
VL: DIQMTQSPSSLSASVGDRVTITCQASQDIKKYLNWYHQKPGKVPELLMHDASNLETGVPSRFSGRGSGTDFTLTISSLQPEDIGTYYCQQYDNLPPLTFGGGTKVEIKR
notes: Antibody as used in the AM14 ELISA, detected with an HRP-labeled secondary antibody

Legend:
[1] = biological target: RSV A + RSV B bivalent composition (RSV subtype A; RSV subtype B); experiment: AM14 Fab titration by SEC; High-Slow 1 cycle; T0
[2] = biological target: RSV A + RSV B bivalent composition (RSV subtype A; RSV subtype B); experiment: AM14 Fab titration by SEC; High-Slow 1 cycle; 3 M 2-8°C
[3] = biological target: RSV A + RSV B bivalent composition (RSV subtype A; RSV subtype B); experiment: AM14 Fab titration by SEC; High-Slow 1 cycle; 8 M 2-8°C
[4] = biological target: RSV A + RSV B bivalent composition (RSV subtype A; RSV subtype B); experiment: AM14 Fab titration by SEC; High-Slow 2 cycle; 1 M 2-8°C
[5] = biological target: RSV A + RSV B bivalent composition (RSV subtype A; RSV subtype B); experiment: AM14 Fab titration by SEC; Target cycle; 1 M 2-8°C (second value)
[6] = biological target: RSV A + RSV B bivalent composition (RSV subtype A; RSV subtype B); experiment: AM14 Fab titration by SEC; High-Slow 2 cycle; 1 M 2-8°C (second value)
[7] = biological target: RSV A + RSV B bivalent composition (RSV subtype A; RSV subtype B); experiment: AM14 Fab titration by SEC; composition of Table 14; Annealing Ramp Aggressive cycle
[8] = biological target: RSV A + RSV B bivalent composition (RSV subtype A; RSV subtype B); experiment: AM14 Fab titration by SEC; composition of Table 14; Target lyophilization cycle, T0
[9] = biological target: RSV A + RSV B bivalent composition (RSV subtype A; RSV subtype B); experiment: AM14 Fab titration by SEC; composition of Table 17; Pre-lyo Prep 2, T0 (second value)
[10] = biological target: T1, RSV F protein of subtype A comprising a polypeptide of SEQ ID NO: 1 and a polypeptide of SEQ ID NO: 2 (RSV subtype A, UniProt P11209 137-513; P03420 26-109); experiment: AM14 ELISA; F2 (pH 8, 0 mM NaCl, 0% sucrose); T0
T1 construct: Stabilized prefusion F trimer made of three F2-F1 heterodimers; Produced recombinantly in CHO cells; also called RSV A; RSVA
T1 chain 1: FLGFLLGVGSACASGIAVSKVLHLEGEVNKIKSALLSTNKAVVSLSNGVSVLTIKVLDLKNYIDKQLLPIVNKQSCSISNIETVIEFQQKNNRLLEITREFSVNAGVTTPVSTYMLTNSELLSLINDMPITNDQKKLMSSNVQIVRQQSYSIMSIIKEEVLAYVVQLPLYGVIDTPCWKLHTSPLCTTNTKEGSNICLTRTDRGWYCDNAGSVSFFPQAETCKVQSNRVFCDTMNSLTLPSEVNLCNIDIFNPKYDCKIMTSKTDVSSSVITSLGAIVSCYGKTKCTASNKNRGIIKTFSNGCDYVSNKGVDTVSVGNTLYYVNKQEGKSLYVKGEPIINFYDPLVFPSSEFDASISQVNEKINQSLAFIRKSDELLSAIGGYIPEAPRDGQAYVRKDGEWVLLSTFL
T1 chain 2: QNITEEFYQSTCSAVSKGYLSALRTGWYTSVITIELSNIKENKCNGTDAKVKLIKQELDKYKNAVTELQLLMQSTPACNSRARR

[11] = biological target: T1, RSV F protein of subtype A comprising a …; experiment: AM14 ELISA; F3 (pH 8, 0 mM NaCl, 9% sucrose); T0
[12] = biological target: T1, RSV F protein of subtype A comprising a …; experiment: AM14 ELISA; F12 (pH 8, 100 mM NaCl, 9.0% sucrose); T0
[13] = biological target: T1, RSV F protein of subtype A comprising a …; experiment: AM14 ELISA; F13 (pH 7, 100 mM NaCl, 4.5% sucrose); T0
[14] = biological target: T1, RSV F protein of subtype A comprising a …; experiment: AM14 ELISA; F3 (pH 8, 0 mM NaCl, 9% sucrose); 1 wk 5°C
[15] = biological target: T1, RSV F protein of subtype A comprising a …; experiment: AM14 ELISA; F15 (pH 6, 0 mM NaCl, 9% sucrose); 2 wk 25°C
[16] = biological target: T1, RSV F protein of subtype A comprising a …; experiment: AM14 ELISA; F6 (pH 7, 0 mM NaCl, 4.5% sucrose); 2 wk 25°C
[17] = biological target: T1, RSV F protein of subtype A comprising a …; experiment: AM14 ELISA; F11 (pH 7, 50 mM NaCl, 9.0% sucrose); 2 wk 5°C
[18] = biological target: T1, RSV F protein of subtype A comprising a …; experiment: AM14 ELISA; F12 (pH 8, 100 mM NaCl, 9.0% sucrose); 1 wk 5°C

Row | Molecule | Prefusion Content (%) [1] [%] | Prefusion Content (%) [2] [%] | Prefusion Content (%) [3] [%] | Prefusion Content (%) [4] [%] | Prefusion Content (%) [5] [%] | Prefusion Content (%) [6] [%] | Prefusion Content (%) [7] [%] | Prefusion Content (%) [8] [%] | Prefusion Content (%) [9] [%] | AM14 prefusion content (%), relative to standard [10] [%] | AM14 prefusion content (%), relative to standard [11] [%] | AM14 prefusion content (%), relative to standard [12] [%] | AM14 prefusion content (%), relative to standard [13] [%] | AM14 prefusion content (%), relative to standard [14] [%] | AM14 prefusion content (%), relative to standard [15] [%] | AM14 prefusion content (%), relative to standard [16] [%] | AM14 prefusion content (%), relative to standard [17] [%] | AM14 prefusion content (%), relative to standard [18] [%]
1 | AM14 Fab | 64 | 49 | 69 | 68 | 69 | 65 | 81 | 80 | 82 | – | – | – | – | – | – | – | – | –
2 | B1 | – | – | – | – | – | – | – | – | – | 86 | 95 | 100 | 97 | 104 | 91 | 83 | 90 | 98
